Source: the supplement of paper PMC9170038

System: K4 kissing-loop RNA reporter
Assay: apparent KD of K4 kissing-loop reporter; higher = weaker reporter binding
Conditions: Eterna round: R107
Description: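 RNA-MaP round R107: designed RNA switches with theophylline, tryptophan, arginine or FMN aptamers are transcribed on-chip within common flanks. They are titrated with a labelled K4 kissing-loop RNA reporter in RNA-MaP buffer (100 mM Tris pH 7.5, 80 mM KCl, 4 mM MgCl2), without ligand or with the indicated ligand. Median apparent KD per design.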

[1] = input ligand: theophylline 20 uM
[2] = input ligand: tryptophan 2.4 mM
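Further: bound reporter read as fluorescence of individual clusters on recovered sequencing chips by microscopy, with normalized cluster intensities fitted with a binding model.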

Sequence	apparent KD of K4 kissing-loop reporter (input ligand: FMN 200 uM) [nM]	apparent KD of K4 kissing-loop reporter (input ligand: arginine 13.2 mM) [nM]	apparent KD of K4 kissing-loop reporter (input ligand: none) [nM]	apparent KD of K4 kissing-loop reporter [1] [nM]	apparent KD of K4 kissing-loop reporter [2] [nM]
UCCUGCAAUCGACCACGAAAGUGGAUUGAUACCAGAGUCGAAAGACUCCCUUGGCAGCGAGUGAUGUUCGAAGCAGGUAAAUAAA	626	455	539	457	426
UGUAUGUGAUUUGAUACCAGACCAGCUGGUGGUAUAUGAGUGAUGUUCAUGUUGGUUUGGGUCCCUUGGCAGCAAAUCGCAUACU [KL-SSTheoB10]	271	183	217	213	212
ACCUGUAGCAGAAGGAGCGACAGUUAUUCUGAUAGAACUCUGAGUGAUGUUCAGAACAACUGUCAGGUAGGUCGCUGAUACAGGU [Arg B Ex t8a]	577	370	560	512	583
AAGGCCACGAGAAGGAGCGUGUUGUGGAGUGAUGUUCCAUUGUAGACCUAAGGUCUGCGAGCACAGGUAGGUCGCUCGUGGUCAA [whbob_SS_Arginine_B_2t150]	108	116	107	110	117
AAUAAUGAUGUUUAGGAUUUCCGAAUGGAAGGAGCGUGCGAAAGCACAGGUAGGUCGCCAGUGAUGUUGGGACCUGAGCAUCAAA [#SwitchBubble 6 #K4Late]	681	514	703	807	629
GGCAGUGAUGUUGCCAGUGGCAGAUUGGAAGGAGCGUGGUGAGACACAGGUAGGUCGCUAAUUGAAAUUGCUGUCACUAAAAUGC [whbob_Ex_Arginine_A_2t130]	297	314	307	308	242
GGAUAGGACAGAGGAUAUCCAGUGAUGUUGGAGAAUUCUCCUUCAUCAUGUCACAAAAGUGGCAUGGGAGAAGGCUGUCCUAUCG [Mod of Eli's FmnBX 29 v3]	146	579	576	899	578
UAUCUUUGCUGAAGGAGCGAGCAUGUUGGAGUGAUGUUCCGUGCGAGUGAUGUUCGCAUAGCUCAGGUAGGUCGCAGUGGGAGGA [KL-SSArg B29]	120	94.7	105	157	86.2
CUUCGUAAAGGCCCAGUGAUGUUGGGCACUCGAGGACCGGUACGGCCGCCACUCGCUCCCUAAGUCGCGCGCGUGGGCCACCGCC [Xeteoredre]	111	110	99.4	104	113
AACUCUCAGGCACCCGAGUGAUGUUCGGGCCGAGGACCGGUACGGCCGCCACUCGGGCCUGAGAGAGGUUAUCAAAGAUAGCCAA [Omei KL Tryp A SS A v1]	247	68.5	114	62.7	248
AGAACUGUCUUGGAUACCAGUGAUGUUGGUAUCGAUGUGUGAGUGCAAAGCGUCCCACAUCGCCCUUGGCAGCUAAGACAGUUCA [Omei KL Theo B Exc A v5]	331	292	341	375	292
UUCAUCGUGGUUCGCGGGUGGUAUGAAAAGCGAGGACCGGUACGGCCGCCACUCGGUUCCGCUUGUUGAGUGAUGUUCAAUAUUU	207	281	251	350	229
UGGGAUGGGCGAGGAUAUGGUGAUGUUUGGGUUGUUAGUGAUGUUGGUGAUGCUGGUGGUGUUUGUCCAGAAGGCGCGGUUUUUU [Bdazzled 3]	154	64.1	119	132	109
AUACGUUUUUGUGAUACCAGACAUGUGAGUGAUGUUUACAUAUAUAUUUAAUAUUUAGCUGUCCCUUGGCAGCACUGUUUAUUUA [JR_ExcTheophyB_Sub004]	362	382	420	437	301
UUUCUACCGGGAAGGAGCGUGAAUGAUAAUGGAUAUAGUGAUGUUAUAUAUAAGAACGAAUCGCAGGUAGGUCGCCCGGAUGACU [SSArgB.S]	311	333	352	397	310
UUUACCAGUGAUGUUGGCCUAGUAUUUACACGAGGACCGGUACGGCCGCCACUCGCAUUAUCGGACUUUGAUAAGCAUAUUAUAU [theeternabot_sameState_KL_Trp_A_28]	317	283	318	384	199
GCAGUGAUGUUGCGGAUGUACAGUGGAGUGCGAGGACCGGUACGGCCGCCACUCGUACAGAACAAGCUAAUACAUCGAUAGGUGA [XI]	323	358	461	409	339
UCCUAGGUCUUCAGGCGAAAGCCCUGCGAAGGAGCGUGCGAAAGCACAGGUAGGUCGCGCAGUGAUGUUGCACCUAGGUAAUAAA [#SwitchBubble 21 #K4Late]	843	111	268	115	140
